What was measured:
[1] = molecular target: full-length gp130 ΔSY with additional D4-D6 deletion (gp130 ΔSYΔ(D4-D6)) (human) (UniProt P40189); assay: cryo-EM structure
[2] = molecular target: full-length gp130 ΔSY with an additional D1 deletion (gp130 ΔSYΔD1) (human) (UniProt P40189); assay: cryo-EM structure
[3] = molecular target: gp130 D215G mutant, soluble extracellular domain (gp130 D215G ECD) (human); assay: cryo-EM structure
[4] = molecular target: gp130 S187-Y190 deletion mutant, soluble extracellular domain (gp130 ΔSY ECD) (human); assay: cryo-EM structure
[5] = molecular target: gp130 S187-Y190 deletion mutant, soluble extracellular domain (gp130 ΔSY ECD) (human); assay: SEC + SEC-MALS + native gel or EMSA
[6] = molecular target: gp130 V252G mutant, soluble extracellular domain (gp130 V252G ECD) (human); assay: cryo-EM structure
cryo-EM structure = molecular target: the molecule itself; assay: cryo-EM structure
native gel or EMSA = molecular target: the molecule itself; assay: native gel or EMSA

**Q.** Which stoichiometry N [1] does the source give for “full-length gp130 ΔSY with additional D4-D6 deletion (gp130 ΔSYΔ(D4-D6)) (from UniProt P40189 23-918) (receptor)” here?
**A.** 2

**Q.** Which stoichiometry N [2] does the source give for “full-length gp130 ΔSY with an additional D1 deletion (gp130 ΔSYΔD1) (from UniProt P40189 23-918) (receptor)” here?
**A.** 2

**Q.** Which stoichiometry N [3] does the source give for “gp130 D215G mutant, soluble extracellular domain (gp130 D215G ECD) (domain or fragment)” here?
**A.** 2

**Q.** With “gp130 S187-Y190 deletion mutant, soluble extracellular domain (gp130 ΔSY ECD) (domain or fragment)” as the molecule, how does the stoichiometry N [4] read?
**A.** 2

**Q.** And the stoichiometry N [5]?
**A.** 2

**Q.** For “gp130 V252G mutant, soluble extracellular domain (gp130 V252G ECD) (domain or fragment)”, which stoichiometry N [6] is on record?
**A.** 2

B1: full-length gp130 P216H mutant (receptor, human, UniProt P40189 23-918, looked up)
chain: ELLDPCGYISPESPVVQLHSNFTAVCVLKEKCMDYFHVNANYIVWKTNHFTIPKEQYTIINRTASSVTFTDIASLNIQLTCNILTFGQLEQNVYGITIISGLPPEKPKNLSCIVNEGKKMRCEWDGGRETHLETNFTLKSEWATHKFADCKAKRDTPTSCTVDYSTVYFVNIEVWVEAENALGKVTSDHINFDHVYKVKPNPPHNLSVINSEELSSILKLTWTNPSIKSVIILKYNIQYRTKDASTWSQIPPEDTASTRSSFTVQDLKPFTEYVFRIRCMKEDGKGYWSDWSEEASGITYEDRPSKAPSFWYKIDPSHTQGYRTVQLVWKTLPPFEANGKILDYEVTLTRWKSHLQNYTVNATKLTVNLTNDRYLATLTVRNLVGKSDAAVLTIPACDFQATHPVMDLKAFPKDNMLWVEWTTPRESVKKYILEWCVLSDKAPCITDWQQEDGTVHRTYLRGNLAESKCYLITVTPVYADGPGSPESIKAYLKQAPPSKGPTVRTKKVGKNEAVLEWDQLPVDVQNGFIRNYTIFYRTIIGNETAVNVDSSHTEYTLSSLTSDTLYMVRMAAYTDEGGKDGPEFTFTTPKFAQGEIEAIVVPVCLAFLLTTLLGVLFCFNKRDLIKKHIWPNVPDPSKSHIAQWSPHTPPRHNFNSKDQMYSDGNFTDVSVVEIEANDKKPFPEDLKSLDLFKKEKINTEGHSSGIGGSSCMSSSRPSISSSDENESSQNTSSTVQYSTVVHSGYRHQVPSVQVFSRSESTQPLLDSEERPEDLQLVDHVDGGDGILPRQQYFKQNCSQHESSPDISHFERSKQVSSVNEEDFVRLKQQISDHISQSCGSGQMKMFQEVSAADAFGPGTEGQVERFETVGMEAATDEGMPKSYLPQTVRQGGYMPQ
**Q.** B1 was tested. Which “stoichiometry N” value (cryo-EM structure) did it give?
**A.** 2

B2: full-length gp130 E195-V196 deletion mutant (gp130 ΔEV) (receptor, human, UniProt P40189 23-918, looked up)
chain: ELLDPCGYISPESPVVQLHSNFTAVCVLKEKCMDYFHVNANYIVWKTNHFTIPKEQYTIINRTASSVTFTDIASLNIQLTCNILTFGQLEQNVYGITIISGLPPEKPKNLSCIVNEGKKMRCEWDGGRETHLETNFTLKSEWATHKFADCKAKRDTPTSCTVDYSTVYFVNIWVEAENALGKVTSDHINFDPVYKVKPNPPHNLSVINSEELSSILKLTWTNPSIKSVIILKYNIQYRTKDASTWSQIPPEDTASTRSSFTVQDLKPFTEYVFRIRCMKEDGKGYWSDWSEEASGITYEDRPSKAPSFWYKIDPSHTQGYRTVQLVWKTLPPFEANGKILDYEVTLTRWKSHLQNYTVNATKLTVNLTNDRYLATLTVRNLVGKSDAAVLTIPACDFQATHPVMDLKAFPKDNMLWVEWTTPRESVKKYILEWCVLSDKAPCITDWQQEDGTVHRTYLRGNLAESKCYLITVTPVYADGPGSPESIKAYLKQAPPSKGPTVRTKKVGKNEAVLEWDQLPVDVQNGFIRNYTIFYRTIIGNETAVNVDSSHTEYTLSSLTSDTLYMVRMAAYTDEGGKDGPEFTFTTPKFAQGEIEAIVVPVCLAFLLTTLLGVLFCFNKRDLIKKHIWPNVPDPSKSHIAQWSPHTPPRHNFNSKDQMYSDGNFTDVSVVEIEANDKKPFPEDLKSLDLFKKEKINTEGHSSGIGGSSCMSSSRPSISSSDENESSQNTSSTVQYSTVVHSGYRHQVPSVQVFSRSESTQPLLDSEERPEDLQLVDHVDGGDGILPRQQYFKQNCSQHESSPDISHFERSKQVSSVNEEDFVRLKQQISDHISQSCGSGQMKMFQEVSAADAFGPGTEGQVERFETVGMEAATDEGMPKSYLPQTVRQGGYMPQ
**Q.** Which “stoichiometry N” value (cryo-EM structure) does the source give for B2 here?
**A.** 2

B3: full-length gp130 A418-F421 deletion mutant (gp130 ΔAF) (receptor, human, UniProt P40189 23-918, looked up)
chain: ELLDPCGYISPESPVVQLHSNFTAVCVLKEKCMDYFHVNANYIVWKTNHFTIPKEQYTIINRTASSVTFTDIASLNIQLTCNILTFGQLEQNVYGITIISGLPPEKPKNLSCIVNEGKKMRCEWDGGRETHLETNFTLKSEWATHKFADCKAKRDTPTSCTVDYSTVYFVNIEVWVEAENALGKVTSDHINFDPVYKVKPNPPHNLSVINSEELSSILKLTWTNPSIKSVIILKYNIQYRTKDASTWSQIPPEDTASTRSSFTVQDLKPFTEYVFRIRCMKEDGKGYWSDWSEEASGITYEDRPSKAPSFWYKIDPSHTQGYRTVQLVWKTLPPFEANGKILDYEVTLTRWKSHLQNYTVNATKLTVNLTNDRYLATLTVRNLVGKSDAAVLTIPQATHPVMDLKAFPKDNMLWVEWTTPRESVKKYILEWCVLSDKAPCITDWQQEDGTVHRTYLRGNLAESKCYLITVTPVYADGPGSPESIKAYLKQAPPSKGPTVRTKKVGKNEAVLEWDQLPVDVQNGFIRNYTIFYRTIIGNETAVNVDSSHTEYTLSSLTSDTLYMVRMAAYTDEGGKDGPEFTFTTPKFAQGEIEAIVVPVCLAFLLTTLLGVLFCFNKRDLIKKHIWPNVPDPSKSHIAQWSPHTPPRHNFNSKDQMYSDGNFTDVSVVEIEANDKKPFPEDLKSLDLFKKEKINTEGHSSGIGGSSCMSSSRPSISSSDENESSQNTSSTVQYSTVVHSGYRHQVPSVQVFSRSESTQPLLDSEERPEDLQLVDHVDGGDGILPRQQYFKQNCSQHESSPDISHFERSKQVSSVNEEDFVRLKQQISDHISQSCGSGQMKMFQEVSAADAFGPGTEGQVERFETVGMEAATDEGMPKSYLPQTVRQGGYMPQ
**Q.** With B3 as the molecule, how does the “stoichiometry N” value (cryo-EM structure) read?
**A.** 2

B4: full-length gp130 K173-D177 deletion mutant (gp130 ΔKD) (receptor, human, UniProt P40189 23-918, looked up)
chain: ELLDPCGYISPESPVVQLHSNFTAVCVLKEKCMDYFHVNANYIVWKTNHFTIPKEQYTIINRTASSVTFTDIASLNIQLTCNILTFGQLEQNVYGITIISGLPPEKPKNLSCIVNEGKKMRCEWDGGRETHLETNFTLKSEWATHKFADCTPTSCTVDYSTVYFVNIEVWVEAENALGKVTSDHINFDPVYKVKPNPPHNLSVINSEELSSILKLTWTNPSIKSVIILKYNIQYRTKDASTWSQIPPEDTASTRSSFTVQDLKPFTEYVFRIRCMKEDGKGYWSDWSEEASGITYEDRPSKAPSFWYKIDPSHTQGYRTVQLVWKTLPPFEANGKILDYEVTLTRWKSHLQNYTVNATKLTVNLTNDRYLATLTVRNLVGKSDAAVLTIPACDFQATHPVMDLKAFPKDNMLWVEWTTPRESVKKYILEWCVLSDKAPCITDWQQEDGTVHRTYLRGNLAESKCYLITVTPVYADGPGSPESIKAYLKQAPPSKGPTVRTKKVGKNEAVLEWDQLPVDVQNGFIRNYTIFYRTIIGNETAVNVDSSHTEYTLSSLTSDTLYMVRMAAYTDEGGKDGPEFTFTTPKFAQGEIEAIVVPVCLAFLLTTLLGVLFCFNKRDLIKKHIWPNVPDPSKSHIAQWSPHTPPRHNFNSKDQMYSDGNFTDVSVVEIEANDKKPFPEDLKSLDLFKKEKINTEGHSSGIGGSSCMSSSRPSISSSDENESSQNTSSTVQYSTVVHSGYRHQVPSVQVFSRSESTQPLLDSEERPEDLQLVDHVDGGDGILPRQQYFKQNCSQHESSPDISHFERSKQVSSVNEEDFVRLKQQISDHISQSCGSGQMKMFQEVSAADAFGPGTEGQVERFETVGMEAATDEGMPKSYLPQTVRQGGYMPQ
**Q.** How did the “stoichiometry N” value (cryo-EM structure) turn out when B4 was run?
**A.** 2

B5: full-length gp130 S187-Y190 deletion mutant (gp130 ΔSY full-length) (receptor, human, UniProt P40189 23-918, looked up)
chain: ELLDPCGYISPESPVVQLHSNFTAVCVLKEKCMDYFHVNANYIVWKTNHFTIPKEQYTIINRTASSVTFTDIASLNIQLTCNILTFGQLEQNVYGITIISGLPPEKPKNLSCIVNEGKKMRCEWDGGRETHLETNFTLKSEWATHKFADCKAKRDTPTSCTVDYFVNIEVWVEAENALGKVTSDHINFDPVYKVKPNPPHNLSVINSEELSSILKLTWTNPSIKSVIILKYNIQYRTKDASTWSQIPPEDTASTRSSFTVQDLKPFTEYVFRIRCMKEDGKGYWSDWSEEASGITYEDRPSKAPSFWYKIDPSHTQGYRTVQLVWKTLPPFEANGKILDYEVTLTRWKSHLQNYTVNATKLTVNLTNDRYLATLTVRNLVGKSDAAVLTIPACDFQATHPVMDLKAFPKDNMLWVEWTTPRESVKKYILEWCVLSDKAPCITDWQQEDGTVHRTYLRGNLAESKCYLITVTPVYADGPGSPESIKAYLKQAPPSKGPTVRTKKVGKNEAVLEWDQLPVDVQNGFIRNYTIFYRTIIGNETAVNVDSSHTEYTLSSLTSDTLYMVRMAAYTDEGGKDGPEFTFTTPKFAQGEIEAIVVPVCLAFLLTTLLGVLFCFNKRDLIKKHIWPNVPDPSKSHIAQWSPHTPPRHNFNSKDQMYSDGNFTDVSVVEIEANDKKPFPEDLKSLDLFKKEKINTEGHSSGIGGSSCMSSSRPSISSSDENESSQNTSSTVQYSTVVHSGYRHQVPSVQVFSRSESTQPLLDSEERPEDLQLVDHVDGGDGILPRQQYFKQNCSQHESSPDISHFERSKQVSSVNEEDFVRLKQQISDHISQSCGSGQMKMFQEVSAADAFGPGTEGQVERFETVGMEAATDEGMPKSYLPQTVRQGGYMPQ
**Q.** How did the “stoichiometry N” value (native gel or EMSA) turn out when B5 was run?
**A.** 2
